Experimental findings from patent US20210388110A1 (published 2021) are described below.

The Kd is the equilibrium constant for the complex coming apart.

The test addresses T1, soluble human GPC3 (human, UniProt P51654 25-563, limits assumed).
T1 construct: soluble human GPC3 as analyte; also called glypican 3
As to the kind of experiment: SPR (Biacore), soluble human GPC3.

T1 sequence (P51654 other isoform, or with tags, fused parts or gaps limits assumed, form in doubt): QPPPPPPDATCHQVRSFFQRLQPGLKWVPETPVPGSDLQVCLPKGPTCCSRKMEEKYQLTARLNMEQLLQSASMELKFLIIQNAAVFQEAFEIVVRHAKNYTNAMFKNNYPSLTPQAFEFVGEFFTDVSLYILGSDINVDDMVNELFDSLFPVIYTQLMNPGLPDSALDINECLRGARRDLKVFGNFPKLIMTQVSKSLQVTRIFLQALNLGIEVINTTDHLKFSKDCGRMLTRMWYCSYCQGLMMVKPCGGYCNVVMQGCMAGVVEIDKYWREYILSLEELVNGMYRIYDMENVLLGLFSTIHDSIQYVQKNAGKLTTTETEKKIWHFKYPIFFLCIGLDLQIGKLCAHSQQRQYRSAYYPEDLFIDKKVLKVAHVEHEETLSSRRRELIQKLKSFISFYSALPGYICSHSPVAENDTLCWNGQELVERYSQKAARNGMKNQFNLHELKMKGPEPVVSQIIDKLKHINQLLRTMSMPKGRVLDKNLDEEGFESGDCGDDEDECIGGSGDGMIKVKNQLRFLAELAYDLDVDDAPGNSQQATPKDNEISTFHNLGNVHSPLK

B1: GCH035-G1dh/none-Hi-Kn010G3/L0000-k0 (antibody, human IgG1, kappa)
heavy: not shown
chain: EPKSSDKTHTCPPCPAPELLGGPSVFLFPPKPKDTLMISRTPEVTCVVVDVSHEDPEVKFNWYVDGVEVHNAKTKPREEQYNSTYRVVSVLTVLHQDWLNGKEYKCKVSNKALPAPIEKTISKAKGQPREPQVCTLPPSRDELTKNQVSLWCLVKGFYPSDIAVEWESNGQPENNYKTTPPVLDSDGSFFLYSKLTVDKSRWQQGNVFSCSVMHEALHNRYTQKSLSLSP
light: DIVMTQSPLSLPVTPGEPASISCRSSQSLVHSNRNTYLHWYQQKPGQAPRLLIYKVSNRFSGVPDRFSGSGSGTDFTLKISRVEAEDVGVYYCGQGTQVPYTFGQGTKLEIKRTVAAPSVFIFPPSDEQLKSGTASVVCLLNNFYPREAKVQWKVDNALQSGNSQESVTEQDSKDSTYSLSSTLTLSKADYEKHKVYACEVTHQGLSSPVTKSFNRGEC
notes: single-arm (one Fab)
For B1, the Kd is 4.94 nM.

B2: GCH042-G1dh/none-Hi-Kn010G3/L0000-k0 (antibody, human IgG1, kappa)
heavy: not shown
chain: EPKSSDKTHTCPPCPAPELLGGPSVFLFPPKPKDTLMISRTPEVTCVVVDVSHEDPEVKFNWYVDGVEVHNAKTKPREEQYNSTYRVVSVLTVLHQDWLNGKEYKCKVSNKALPAPIEKTISKAKGQPREPQVCTLPPSRDELTKNQVSLWCLVKGFYPSDIAVEWESNGQPENNYKTTPPVLDSDGSFFLYSKLTVDKSRWQQGNVFSCSVMHEALHNRYTQKSLSLSP
light: DIVMTQSPLSLPVTPGEPASISCRSSQSLVHSNRNTYLHWYQQKPGQAPRLLIYKVSNRFSGVPDRFSGSGSGTDFTLKISRVEAEDVGVYYCGQGTQVPYTFGQGTKLEIKRTVAAPSVFIFPPSDEQLKSGTASVVCLLNNFYPREAKVQWKVDNALQSGNSQESVTEQDSKDSTYSLSSTLTLSKADYEKHKVYACEVTHQGLSSPVTKSFNRGEC
notes: single-arm (one Fab)
The molecule B2 registered a Kd of 4.89 nM.

B3: GCH045-G1dh/none-Hi-Kn010G3/L0000-k0 (antibody, human IgG1, kappa)
heavy: not shown
chain: EPKSSDKTHTCPPCPAPELLGGPSVFLFPPKPKDTLMISRTPEVTCVVVDVSHEDPEVKFNWYVDGVEVHNAKTKPREEQYNSTYRVVSVLTVLHQDWLNGKEYKCKVSNKALPAPIEKTISKAKGQPREPQVCTLPPSRDELTKNQVSLWCLVKGFYPSDIAVEWESNGQPENNYKTTPPVLDSDGSFFLYSKLTVDKSRWQQGNVFSCSVMHEALHNRYTQKSLSLSP
light: DIVMTQSPLSLPVTPGEPASISCRSSQSLVHSNRNTYLHWYQQKPGQAPRLLIYKVSNRFSGVPDRFSGSGSGTDFTLKISRVEAEDVGVYYCGQGTQVPYTFGQGTKLEIKRTVAAPSVFIFPPSDEQLKSGTASVVCLLNNFYPREAKVQWKVDNALQSGNSQESVTEQDSKDSTYSLSSTLTLSKADYEKHKVYACEVTHQGLSSPVTKSFNRGEC
notes: single-arm (one Fab)
The molecule B3 came in with a Kd of 4.63 nM.

B4: GCH039-G1dh/none-Hi-Kn010G3/L0000-k0 (antibody, human IgG1, kappa)
heavy: not shown
chain: EPKSSDKTHTCPPCPAPELLGGPSVFLFPPKPKDTLMISRTPEVTCVVVDVSHEDPEVKFNWYVDGVEVHNAKTKPREEQYNSTYRVVSVLTVLHQDWLNGKEYKCKVSNKALPAPIEKTISKAKGQPREPQVCTLPPSRDELTKNQVSLWCLVKGFYPSDIAVEWESNGQPENNYKTTPPVLDSDGSFFLYSKLTVDKSRWQQGNVFSCSVMHEALHNRYTQKSLSLSP
light: DIVMTQSPLSLPVTPGEPASISCRSSQSLVHSNRNTYLHWYQQKPGQAPRLLIYKVSNRFSGVPDRFSGSGSGTDFTLKISRVEAEDVGVYYCGQGTQVPYTFGQGTKLEIKRTVAAPSVFIFPPSDEQLKSGTASVVCLLNNFYPREAKVQWKVDNALQSGNSQESVTEQDSKDSTYSLSSTLTLSKADYEKHKVYACEVTHQGLSSPVTKSFNRGEC
notes: single-arm (one Fab)
Take B4: binding was characterised by a dissociation constant (Kd) of 4.95 nM.

B5: GCH040-G1dh/none-Hi-Kn010G3/L0000-k0 (antibody, human IgG1, kappa)
heavy: not shown
chain: EPKSSDKTHTCPPCPAPELLGGPSVFLFPPKPKDTLMISRTPEVTCVVVDVSHEDPEVKFNWYVDGVEVHNAKTKPREEQYNSTYRVVSVLTVLHQDWLNGKEYKCKVSNKALPAPIEKTISKAKGQPREPQVCTLPPSRDELTKNQVSLWCLVKGFYPSDIAVEWESNGQPENNYKTTPPVLDSDGSFFLYSKLTVDKSRWQQGNVFSCSVMHEALHNRYTQKSLSLSP
light: DIVMTQSPLSLPVTPGEPASISCRSSQSLVHSNRNTYLHWYQQKPGQAPRLLIYKVSNRFSGVPDRFSGSGSGTDFTLKISRVEAEDVGVYYCGQGTQVPYTFGQGTKLEIKRTVAAPSVFIFPPSDEQLKSGTASVVCLLNNFYPREAKVQWKVDNALQSGNSQESVTEQDSKDSTYSLSSTLTLSKADYEKHKVYACEVTHQGLSSPVTKSFNRGEC
notes: single-arm (one Fab)
On to B5, for which the Kd is 4.8 nM.

B6: GCH054-G1dh/none-Hi-Kn010G3/L0212-k0 (antibody, human IgG1, kappa)
heavy: not shown
chain: EPKSSDKTHTCPPCPAPELLGGPSVFLFPPKPKDTLMISRTPEVTCVVVDVSHEDPEVKFNWYVDGVEVHNAKTKPREEQYNSTYRVVSVLTVLHQDWLNGKEYKCKVSNKALPAPIEKTISKAKGQPREPQVCTLPPSRDELTKNQVSLWCLVKGFYPSDIAVEWESNGQPENNYKTTPPVLDSDGSFFLYSKLTVDKSRWQQGNVFSCSVMHEALHNRYTQKSLSLSP
light: DIVMTQSPLSLPVTPGEPASISCRPSQSPVHSNRNTYLHWYQQKPGQAPRLLIYKVSNRFSGVPDRFSGSGSGTDFTLKISRVEAEDVGVYYCYQGTQVPYTFGQGTKLEIKRTVAAPSVFIFPPSDEQLKSGTASVVCLLNNFYPREAKVQWKVDNALQSGNSQESVTEQDSKDSTYSLSSTLTLSKADYEKHKVYACEVTHQGLSSPVTKSFNRGEC
notes: single-arm (one Fab)
Molecule B6 gave an equilibrium dissociation constant (Kd) of 0.517 nM.

B7: GCH053-G1dh/none-Hi-Kn010G3/L0000-k0 (antibody, human IgG1, kappa)
heavy: not shown
chain: EPKSSDKTHTCPPCPAPELLGGPSVFLFPPKPKDTLMISRTPEVTCVVVDVSHEDPEVKFNWYVDGVEVHNAKTKPREEQYNSTYRVVSVLTVLHQDWLNGKEYKCKVSNKALPAPIEKTISKAKGQPREPQVCTLPPSRDELTKNQVSLWCLVKGFYPSDIAVEWESNGQPENNYKTTPPVLDSDGSFFLYSKLTVDKSRWQQGNVFSCSVMHEALHNRYTQKSLSLSP
light: DIVMTQSPLSLPVTPGEPASISCRSSQSLVHSNRNTYLHWYQQKPGQAPRLLIYKVSNRFSGVPDRFSGSGSGTDFTLKISRVEAEDVGVYYCGQGTQVPYTFGQGTKLEIKRTVAAPSVFIFPPSDEQLKSGTASVVCLLNNFYPREAKVQWKVDNALQSGNSQESVTEQDSKDSTYSLSSTLTLSKADYEKHKVYACEVTHQGLSSPVTKSFNRGEC
notes: single-arm (one Fab)
B7 showed a Kd of 4.05 nM.

B8: GCH054-G1dh/none-Hi-Kn010G3/L0215-k0 (antibody, human IgG1, kappa)
heavy: not shown
chain: EPKSSDKTHTCPPCPAPELLGGPSVFLFPPKPKDTLMISRTPEVTCVVVDVSHEDPEVKFNWYVDGVEVHNAKTKPREEQYNSTYRVVSVLTVLHQDWLNGKEYKCKVSNKALPAPIEKTISKAKGQPREPQVCTLPPSRDELTKNQVSLWCLVKGFYPSDIAVEWESNGQPENNYKTTPPVLDSDGSFFLYSKLTVDKSRWQQGNVFSCSVMHEALHNRYTQKSLSLSP
light: DIVMTQSPLSLPVTPGEPASISCRSSQPPVHSNRNTYIHWYQQKPGQAPRLLIYKVSNRFSGVPDRFSGSGSGTDFTLKISRVEAEDVGVYYCGQGTQVPYTFGQGTKLEIKRTVAAPSVFIFPPSDEQLKSGTASVVCLLNNFYPREAKVQWKVDNALQSGNSQESVTEQDSKDSTYSLSSTLTLSKADYEKHKVYACEVTHQGLSSPVTKSFNRGEC
notes: single-arm (one Fab)
In the case of B8, binding was put at a Kd of 1.62 nM.

B9: GCH054-G1dh/none-Hi-Kn010G3/L0200-k0 (antibody, human IgG1, kappa)
heavy: not shown
chain: EPKSSDKTHTCPPCPAPELLGGPSVFLFPPKPKDTLMISRTPEVTCVVVDVSHEDPEVKFNWYVDGVEVHNAKTKPREEQYNSTYRVVSVLTVLHQDWLNGKEYKCKVSNKALPAPIEKTISKAKGQPREPQVCTLPPSRDELTKNQVSLWCLVKGFYPSDIAVEWESNGQPENNYKTTPPVLDSDGSFFLYSKLTVDKSRWQQGNVFSCSVMHEALHNRYTQKSLSLSP
light: DIVMTQSPLSLPVTPGEPASISCRPSQSPVHSNRNTYLHWYQQKPGQAPRLLIYKVSNRFSGVPDRFSGSGSGTDFTLKISRVEAEDVGVYYCGQGTQVPYTFGQGTKLEIKRTVAAPSVFIFPPSDEQLKSGTASVVCLLNNFYPREAKVQWKVDNALQSGNSQESVTEQDSKDSTYSLSSTLTLSKADYEKHKVYACEVTHQGLSSPVTKSFNRGEC
notes: single-arm (one Fab)
As to B9, the Kd is 1.18 nM.

B10: GCH054-G1dh/none-Hi-Kn010G3/L0203-k0 (antibody, human IgG1, kappa)
heavy: not shown
chain: EPKSSDKTHTCPPCPAPELLGGPSVFLFPPKPKDTLMISRTPEVTCVVVDVSHEDPEVKFNWYVDGVEVHNAKTKPREEQYNSTYRVVSVLTVLHQDWLNGKEYKCKVSNKALPAPIEKTISKAKGQPREPQVCTLPPSRDELTKNQVSLWCLVKGFYPSDIAVEWESNGQPENNYKTTPPVLDSDGSFFLYSKLTVDKSRWQQGNVFSCSVMHEALHNRYTQKSLSLSP
light: DIVMTQSPLSLPVTPGEPASISCRSSQSPVHSNRNTYIHWYQQKPGQAPRLLIYKVSNRFSGVPDRFSGSGSGTDFTLKISRVEAEDVGVYYCGQGTQVPYTFGQGTKLEIKRTVAAPSVFIFPPSDEQLKSGTASVVCLLNNFYPREAKVQWKVDNALQSGNSQESVTEQDSKDSTYSLSSTLTLSKADYEKHKVYACEVTHQGLSSPVTKSFNRGEC
notes: single-arm (one Fab)
B10: the Kd was determined as 2.48 nM.

B11: GCH054-G1dh/none-Hi-Kn010G3/L0201-k0 (antibody, human IgG1, kappa)
heavy: not shown
chain: EPKSSDKTHTCPPCPAPELLGGPSVFLFPPKPKDTLMISRTPEVTCVVVDVSHEDPEVKFNWYVDGVEVHNAKTKPREEQYNSTYRVVSVLTVLHQDWLNGKEYKCKVSNKALPAPIEKTISKAKGQPREPQVCTLPPSRDELTKNQVSLWCLVKGFYPSDIAVEWESNGQPENNYKTTPPVLDSDGSFFLYSKLTVDKSRWQQGNVFSCSVMHEALHNRYTQKSLSLSP
light: DIVMTQSPLSLPVTPGEPASISCRSSQPPVHSNRNTYLHWYQQKPGQAPRLLIYKVSNRFSGVPDRFSGSGSGTDFTLKISRVEAEDVGVYYCGQGTQVPYTFGQGTKLEIKRTVAAPSVFIFPPSDEQLKSGTASVVCLLNNFYPREAKVQWKVDNALQSGNSQESVTEQDSKDSTYSLSSTLTLSKADYEKHKVYACEVTHQGLSSPVTKSFNRGEC
notes: single-arm (one Fab)
B11 showed a Kd of 1.08 nM.

B12: GCH043-G1dh/none-Hi-Kn010G3/L0000-k0 (antibody, human IgG1, kappa)
heavy: not shown
chain: EPKSSDKTHTCPPCPAPELLGGPSVFLFPPKPKDTLMISRTPEVTCVVVDVSHEDPEVKFNWYVDGVEVHNAKTKPREEQYNSTYRVVSVLTVLHQDWLNGKEYKCKVSNKALPAPIEKTISKAKGQPREPQVCTLPPSRDELTKNQVSLWCLVKGFYPSDIAVEWESNGQPENNYKTTPPVLDSDGSFFLYSKLTVDKSRWQQGNVFSCSVMHEALHNRYTQKSLSLSP
light: DIVMTQSPLSLPVTPGEPASISCRSSQSLVHSNRNTYLHWYQQKPGQAPRLLIYKVSNRFSGVPDRFSGSGSGTDFTLKISRVEAEDVGVYYCGQGTQVPYTFGQGTKLEIKRTVAAPSVFIFPPSDEQLKSGTASVVCLLNNFYPREAKVQWKVDNALQSGNSQESVTEQDSKDSTYSLSSTLTLSKADYEKHKVYACEVTHQGLSSPVTKSFNRGEC
notes: single-arm (one Fab)
As for B12, the Kd stood at 3.74 nM.
